Target: H3K23ub mononucleosomes (H3 'K23ub' thioether mimic), P68431;P0CG48;P04908;O60814;P62805
Assay: Alpha-screen proximity assay

Substance: recombinant DNMT1 RFTS domain WT (His-MBP-RFTS) (from UniProt P26358) P378A; L381A
- Kd: 140 nM
